This is an account of results in patent USRE49294.

Data set [1] concerns the target T1, TelN protelomerase (bacteriophage N15) (UniProt Q77WP1).
T1 sequence: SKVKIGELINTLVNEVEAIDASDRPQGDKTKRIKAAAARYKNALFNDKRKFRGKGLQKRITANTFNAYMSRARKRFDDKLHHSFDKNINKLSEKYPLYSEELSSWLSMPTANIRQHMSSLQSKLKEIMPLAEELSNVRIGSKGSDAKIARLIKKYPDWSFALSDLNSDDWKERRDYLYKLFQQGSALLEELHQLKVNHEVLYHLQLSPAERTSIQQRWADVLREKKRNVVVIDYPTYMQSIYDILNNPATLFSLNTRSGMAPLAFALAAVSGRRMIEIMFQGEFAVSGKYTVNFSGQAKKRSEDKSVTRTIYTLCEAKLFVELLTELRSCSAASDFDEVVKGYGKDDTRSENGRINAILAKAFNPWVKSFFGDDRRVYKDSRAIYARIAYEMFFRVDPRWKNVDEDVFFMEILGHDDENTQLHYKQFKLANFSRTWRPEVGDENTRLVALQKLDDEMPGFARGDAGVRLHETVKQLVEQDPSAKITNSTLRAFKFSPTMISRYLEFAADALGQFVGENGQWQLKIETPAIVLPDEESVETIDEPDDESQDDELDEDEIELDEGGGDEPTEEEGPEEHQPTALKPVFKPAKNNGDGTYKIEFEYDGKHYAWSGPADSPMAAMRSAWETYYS
The data set is described as follows: cell_activity. The following applies: SS- integrant at lambda attB, 42 C.

Data set [2] deals with T2, Tel protelomerase (bacteriophage PY54) (UniProt Q8W5V1).
T2 sequence: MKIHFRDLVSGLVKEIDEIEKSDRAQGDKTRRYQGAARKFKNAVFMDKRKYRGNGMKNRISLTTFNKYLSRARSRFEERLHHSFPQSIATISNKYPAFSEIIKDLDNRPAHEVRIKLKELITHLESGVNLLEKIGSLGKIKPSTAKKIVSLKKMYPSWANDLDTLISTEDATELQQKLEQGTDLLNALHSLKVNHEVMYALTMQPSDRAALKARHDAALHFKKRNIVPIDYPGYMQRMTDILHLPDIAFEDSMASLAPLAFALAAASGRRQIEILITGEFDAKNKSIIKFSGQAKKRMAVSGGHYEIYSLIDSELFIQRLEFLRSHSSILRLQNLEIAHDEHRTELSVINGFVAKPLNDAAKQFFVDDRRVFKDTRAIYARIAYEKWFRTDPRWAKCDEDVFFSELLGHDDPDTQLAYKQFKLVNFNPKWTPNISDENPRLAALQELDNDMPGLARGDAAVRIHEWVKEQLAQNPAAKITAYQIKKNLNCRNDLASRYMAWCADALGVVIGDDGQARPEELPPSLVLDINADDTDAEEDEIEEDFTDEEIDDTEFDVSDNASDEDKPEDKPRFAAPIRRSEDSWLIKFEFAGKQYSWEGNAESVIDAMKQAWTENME
The data set is described as follows: cell_activity. The following applies: SS- integrant at lambda attB, 42 C; no processing of SS- plasmid.

Consider SS-minus plasmid (no target site), for which the figures for the activity (fraction viable) in data set [1] and in data set [2] were 0.6 and 1, respectively.
